Data on one molecule can be found in PMC3515076.

The target in this data set is T1, RIG-I (ΔCARDs 1-238) (human, UniProt O95786 239-925, del1-238).
T1 sequence: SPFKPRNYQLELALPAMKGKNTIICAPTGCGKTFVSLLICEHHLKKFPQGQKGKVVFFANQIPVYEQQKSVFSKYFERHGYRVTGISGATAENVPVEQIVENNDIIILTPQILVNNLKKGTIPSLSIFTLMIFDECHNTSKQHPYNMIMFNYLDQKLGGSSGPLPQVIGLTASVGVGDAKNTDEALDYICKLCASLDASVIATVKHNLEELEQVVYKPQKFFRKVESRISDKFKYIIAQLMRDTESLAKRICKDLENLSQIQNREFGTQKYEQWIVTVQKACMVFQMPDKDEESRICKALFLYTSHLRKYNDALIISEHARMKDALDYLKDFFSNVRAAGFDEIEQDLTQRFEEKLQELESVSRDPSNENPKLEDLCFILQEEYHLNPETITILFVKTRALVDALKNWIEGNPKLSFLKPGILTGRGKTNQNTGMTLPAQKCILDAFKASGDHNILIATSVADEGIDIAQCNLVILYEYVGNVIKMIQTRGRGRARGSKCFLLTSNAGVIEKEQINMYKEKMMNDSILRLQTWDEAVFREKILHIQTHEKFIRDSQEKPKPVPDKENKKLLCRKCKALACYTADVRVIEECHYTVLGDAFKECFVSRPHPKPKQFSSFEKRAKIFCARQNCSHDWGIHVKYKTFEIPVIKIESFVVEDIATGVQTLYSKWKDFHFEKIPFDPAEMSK
The data set is described as follows: X-ray crystallography.

B1: 5'ppp8L (structured_RNA)
RNA: GGCGCGGCUUCGGCCGCGCC
modifications: 5' triphosphate
Consider B1, for which the binding result is “binds”.
